Like-named read-outs stand apart in the source and are kept apart here.
T1: Pyrococcus furiosus PCNA
T1 sequence: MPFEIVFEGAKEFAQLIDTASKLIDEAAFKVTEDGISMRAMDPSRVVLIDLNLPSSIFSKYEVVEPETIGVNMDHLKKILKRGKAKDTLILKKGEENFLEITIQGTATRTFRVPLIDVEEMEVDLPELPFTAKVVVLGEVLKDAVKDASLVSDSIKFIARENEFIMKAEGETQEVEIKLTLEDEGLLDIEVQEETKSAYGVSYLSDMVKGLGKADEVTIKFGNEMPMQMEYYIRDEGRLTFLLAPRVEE

T2: Pyrococcus furiosus PCNA
T2 chain: T1 sequence

B1: P. furiosus pol II DNA polymerase (recombinant CBP-DP1/DP2) (protein)
chain 1: MDEFVKSLLKANYLITPSAYYLLREYYEKGEFSIVELVKFARSRESYIITDALATEFLKVKGLEPILPVETKGGFVSTGESQKEQSYEESFGTKEEISQEIKEGESFISTGSEPLEEELNSIGIEEIGANEELVSNGNDNGGEAIVFDKYGYPMVYAPEEIEVEEKEYSKYEDLTIPMNPDFNYVEIKEDYDVVFDVRNVKLKPPKVKNGNGKEGEIIVEAYASLFRSRLKKLRKILRENPELDNVVDIGKLKYVKEDETVTIIGLVNSKREVNKGLIFEIEDLTGKVKVFLPKDSEDYREAFKVLPDAVVAFKGVYSKRGILYANKFYLPDVPLYRRQKPPLEEKVYAILISDIHVGSKEFCENAFIKFLEWLNGNVETKEEEEIVSRVKYLIIAGDVVDGVGVYPGQYADLTIPDIFDQYEALANLLSHVPKHITMFIAPGNHDAARQAIPQPEFYKEYAKPIYKLKNAVIISNPAVIRLHGRDFLIAHGRGIEDVVGSVPGLTHHKPGLPMVELLKMRHVAPMFGGKVPIAPDPEDLLVIEEVPDVVHMGHVHVYDAVVYRGVQLVNSATWQAQTEFQKMVNIVPTPAKVPVVDIDTAKVVKVLDFSGWC
chain 2: MELPKEIEEYFEMLQREIDKAYEIAKKARSQGKDPSTDVEIPQATDMAGRVESLVGPPGVAQRIRELLKEYDKEIVALKIVDEIIEGKFGDFGSKEKYAEQAVRTALAILTEGIVSAPLEGIADVKIKRNTWADNSEYLALYYAGPIRSSGGTAQALSVLVGDYVRRKLGLDRFKPSGKHIERMVEEVDLYHRAVSRLQYHPSPDEVRLAMRNIPIEITGEATDDVEVSHRDVEGVETNQLRGGAILVLAEGVLQKAKKLVKYIDKMGIDGWEWLKEFVEAKEKGEEIEESESKAEESKVETRVEVEKGFYYKLYEKFRAEIAPSEKYAKEIIGGRPLFAGPSENGGFRLRYGRSRVSGFATWSINPATMVLVDEFLAIGTQMKTERPGKGAVVTPATTAEGPIVKLKDGSVVRVDDYNLALKIRDEVEEILYLGDAIIAFGDFVENNQTLLPANYVEEWWIQEFVKAVNEAYEVELRPFEENPRESVEEAAEYLEVDPEFLAKMLYDPLRVKPPVELAIHFSEILEIPLHPYYTLYWNTVNPKDVERLWGVLKDKATIEWGTFRGIKFAKKIEISLDDLGSLKRTLELLGLPHTVREGIVVVDYPWSAALLTPLGNLEWEFKAKPFYTVIDIINENNQIKLRDRGISWIGARMGRPEKAKERKMKPPVQVLFPIGLAGGSSRDIKKAAEEGKIAEVEIAFFKCPKCGHVGPETLCPECGIRKELIWTCPKCGAEYTNSQAEGYSYSCPKCNVKLKPFTKRKIKPSELLNRAMENVKVYGVDKLKGVMGMTSGWKIAEPLEKGLLRAKNEVYVFKDGTIRFDATDAPITHFRPREIGVSVEKLRELGYTHDFEGKPLVSEDQIVELKPQDVILSKEAGKYLLRVARFVDDLLEKFYGLPRFYNAEKMEDLIGHLVIGLAPHTSAGIVGRIIGFVDALVGYAHPYFHAAKRRNCDGDEDSVMLLLDALLNFSRYYLPEKRGGKMDAPLVITTRLDPREVDSEVHNMDVVRYYPLEFYEATYELKSPKELVGVIERVEDRLGKPEMYYGIKFTHDTDDIALGPKMSLYKQLGDMEEKVKRQLTLAERIRAVDQHYVAETILNSHLIPDLRGNLRSFTRQEFRCVKCNTKYRRPPLDGKCPVCGGKIVLTVSKGAIEKYLGTAKMLVANYNVKPYTRQRICLTEKDIDSLFEYLFPEAQLTLIVDPNDICMKMIKERTGETVQGGLLENFNSSGNNGKKIEKKEKKAKEKPKKKKVISLDDFFSKR

Tests used:
Pyrococcus furiosus PCNA [1] = test system: T1, Pyrococcus furiosus PCNA
Pyrococcus furiosus PCNA [2] = molecular target: T2, Pyrococcus furiosus PCNA

Row | Molecule | dNTP incorporation into primed M13 DNA (Pyrococcus furiosus PCNA [1]) | dNTP incorporation into primed M13 DNA (Pyrococcus furiosus PCNA [2])
1 | cloned Pfu DNA polymerase (Pyrococcus furiosus pol I) | PCNA was shown to stimulate dNTP incorporation by both Pfu (pol I) and P. furiosus pol II DNA polymerases | 
2 | B1 |  | PCNA was shown to stimulate dNTP incorporation by both Pfu (pol I) and P. furiosus pol II DNA polymerases
